target: c-Src SH2; test: SH2 binding enrichment of the phosphorylated peptide, bacterial display (enrichment ratio); higher = better substrate or ligand; peptides without Tyr show the background
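For SH2 binding enrichment of the phosphorylated peptide, bacterial display in this document: peptide library displayed on the E. coli surface as eCPX fusions, selected cells deep-sequenced, score is each peptide's frequency after selection divided by its frequency in the input.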
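For phosphorylation enrichment, bacterial display in this document: 11-residue human phosphosite peptides and single-mutation variants displayed on the E. coli surface, counted by deep sequencing, each peptide's frequency after selection divided by its frequency in the unselected input library; frequency after pTyr selection over input frequency; kinase dosed for 20-30% of maximal phosphorylation in three min.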

Going from VEDHDYEGGIG [TKT_Y564_Y563D] to RGKDSYETSKL [SPP1_Y225_Q229K], the SH2 binding enrichment falls from 0.402 to 0.388.

Going from ARSHIYTFSSC [MEFV_Y741_A744S] to QLPRGYISIPV [BAG3_Y205], the SH2 binding enrichment rises from 0.751 to 0.887.

First: NKVFTYIFIME [SCN4A_Y1074_D1069N]
Second: YMKEPYIQSRF [HIPK4_Y175_V171M]
The SH2 binding enrichment of the first is lower: 0.342 for the first, 0.865 for the second.

Compared with KDHPDYKFQAR [SOX10_Y171_P175A_YF], CEHRGSLFLAI [TEK_Y897_Y897S_YF] is higher in SH2 binding enrichment: 0.516 for the first, 0.567 for the second.

First: GRPLFYWLTGC [LYZL6_Y140]
Second: MSRNLYSGDCF [DDR2_Y736_Y740C_YF]
The SH2 binding enrichment of the first is lower: 0.527 for the first, 0.929 for the second.

Going from RGLQVYHRRNA [LRP2_Y2010] to EEVPLYESATT [DCC_Y809_G805E], the SH2 binding enrichment falls from 0.486 to 0.457.

First: ACCLLYCGDVV [TUBA4A_Y319_R320C]
Second: KVMANYVYKAG [MAML2_Y513_M514V]
The SH2 binding enrichment of the first is lower: 0.562 for the first, 0.723 for the second.

First: VLTSKYRGGGG [HBA1_Y141]
Second: TVHCDYLNIPH [TAF1L_Y1385]
The SH2 binding enrichment of the first is lower: 0.524 for the first, 0.718 for the second.

Compared with CSEEMYRLMLQ [RET_Y981], PSQRRNVYYYS [PTEN_Y174_Y174N] is higher in SH2 binding enrichment: 0.414 for the first, 1.25 for the second.

Compared with EQKKFYNAMKK [SCN5A_Y1495_YF], FDGGCYEQLFV [MC4R_Y41_S36Y_YF] is lower in SH2 binding enrichment: 0.859 for the first, 0.485 for the second.

Compared with QFQEKYKQVEQ [HCN4_Y531_YF], APAHKYHGGGG [HBD_Y146_L142P] is lower in SH2 binding enrichment: 0.603 for the first, 0.538 for the second.

Going from GRRNTYFASIA [ACADM_Y352_YF] to TVFSDYLHPQY [CCPG1_Y569], the SH2 binding enrichment rises from 0.356 to 0.541.

Going from KKCTRYIDCDR [ASPA_Y64_L69R] to TILEHYRRTHC [MYBPC3_Y1119_V1115I], the SH2 binding enrichment falls from 0.839 to 0.663.

Going from LSVEIYDRREF [ITGB7_Y753_YF] to DEGVNYFMSKG [FBXO8_Y156], the SH2 binding enrichment falls from 0.542 to 0.442.

LLSISYVGCSL [ADGRD1_Y571_S567L] was tested, and the SH2 binding enrichment was 0.54.

target: SHP2-C SH2; test: as above

Going from VEDHDYEGGIG [TKT_Y564_Y563D] to RGKDSYETSKL [SPP1_Y225_Q229K], the SH2 binding enrichment rises from 0.506 to 0.581.

First: ARSHIYTFSSC [MEFV_Y741_A744S]
Second: QLPRGYISIPV [BAG3_Y205]
The SH2 binding enrichment of the first is higher: 1.46 for the first, 0.993 for the second.

First: NKVFTYIFIME [SCN4A_Y1074_D1069N]
Second: YMKEPYIQSRF [HIPK4_Y175_V171M]
The SH2 binding enrichment of the first is lower: 0.765 for the first, 0.832 for the second.

Going from KDHPDYKFQAR [SOX10_Y171_P175A_YF] to CEHRGSLFLAI [TEK_Y897_Y897S_YF], the SH2 binding enrichment falls from 0.813 to 0.672.

Compared with GRPLFYWLTGC [LYZL6_Y140], MSRNLYSGDCF [DDR2_Y736_Y740C_YF] is lower in SH2 binding enrichment: 0.85 for the first, 0.595 for the second.

First: RGLQVYHRRNA [LRP2_Y2010]
Second: EEVPLYESATT [DCC_Y809_G805E]
The SH2 binding enrichment of the first is higher: 0.604 for the first, 0.574 for the second.

Going from ACCLLYCGDVV [TUBA4A_Y319_R320C] to KVMANYVYKAG [MAML2_Y513_M514V], the SH2 binding enrichment rises from 0.675 to 1.28.

First: VLTSKYRGGGG [HBA1_Y141]
Second: TVHCDYLNIPH [TAF1L_Y1385]
The SH2 binding enrichment of the first is higher: 0.841 for the first, 0.676 for the second.

Compared with CSEEMYRLMLQ [RET_Y981], PSQRRNVYYYS [PTEN_Y174_Y174N] is higher in SH2 binding enrichment: 0.549 for the first, 0.828 for the second.

Going from EQKKFYNAMKK [SCN5A_Y1495_YF] to FDGGCYEQLFV [MC4R_Y41_S36Y_YF], the SH2 binding enrichment falls from 0.955 to 0.654.

Going from QFQEKYKQVEQ [HCN4_Y531_YF] to APAHKYHGGGG [HBD_Y146_L142P], the SH2 binding enrichment falls from 0.876 to 0.66.

Going from GRRNTYFASIA [ACADM_Y352_YF] to TVFSDYLHPQY [CCPG1_Y569], the SH2 binding enrichment rises from 0.528 to 0.76.

Compared with KKCTRYIDCDR [ASPA_Y64_L69R], TILEHYRRTHC [MYBPC3_Y1119_V1115I] is higher in SH2 binding enrichment: 0.633 for the first, 0.939 for the second.

First: LSVEIYDRREF [ITGB7_Y753_YF]
Second: DEGVNYFMSKG [FBXO8_Y156]
The SH2 binding enrichment of the first is higher: 0.648 for the first, 0.544 for the second.

With LLSISYVGCSL [ADGRD1_Y571_S567L] the SH2 binding enrichment was 0.571.

target: Grb2 SH2 (UniProt P62993); test: as above
Sequence (P62993 whole entry, looked up): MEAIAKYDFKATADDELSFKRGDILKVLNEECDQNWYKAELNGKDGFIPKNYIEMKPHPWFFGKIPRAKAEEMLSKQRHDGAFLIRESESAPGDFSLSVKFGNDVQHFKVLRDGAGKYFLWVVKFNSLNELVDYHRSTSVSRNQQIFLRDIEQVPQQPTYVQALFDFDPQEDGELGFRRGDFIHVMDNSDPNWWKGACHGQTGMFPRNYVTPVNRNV

Going from VEDHDYEGGIG [TKT_Y564_Y563D] to RGKDSYETSKL [SPP1_Y225_Q229K], the SH2 binding enrichment rises from 0.697 to 1.03.

Compared with ARSHIYTFSSC [MEFV_Y741_A744S], QLPRGYISIPV [BAG3_Y205] is lower in SH2 binding enrichment: 0.893 for the first, 0.736 for the second.

First: NKVFTYIFIME [SCN4A_Y1074_D1069N]
Second: YMKEPYIQSRF [HIPK4_Y175_V171M]
The SH2 binding enrichment of the first is lower: 0.745 for the first, 1.12 for the second.

Compared with KDHPDYKFQAR [SOX10_Y171_P175A_YF], CEHRGSLFLAI [TEK_Y897_Y897S_YF] is higher in SH2 binding enrichment: 0.835 for the first, 0.989 for the second.

First: GRPLFYWLTGC [LYZL6_Y140]
Second: MSRNLYSGDCF [DDR2_Y736_Y740C_YF]
The SH2 binding enrichment of the first is lower: 0.803 for the first, 0.837 for the second.

First: RGLQVYHRRNA [LRP2_Y2010]
Second: EEVPLYESATT [DCC_Y809_G805E]
The SH2 binding enrichment of the first is lower: 0.674 for the first, 0.8 for the second.

First: ACCLLYCGDVV [TUBA4A_Y319_R320C]
Second: KVMANYVYKAG [MAML2_Y513_M514V]
The SH2 binding enrichment of the first is higher: 0.898 for the first, 0.874 for the second.

Compared with VLTSKYRGGGG [HBA1_Y141], TVHCDYLNIPH [TAF1L_Y1385] is higher in SH2 binding enrichment: 1.39 for the first, 2.18 for the second.

Going from CSEEMYRLMLQ [RET_Y981] to PSQRRNVYYYS [PTEN_Y174_Y174N], the SH2 binding enrichment rises from 0.7 to 0.923.

Going from EQKKFYNAMKK [SCN5A_Y1495_YF] to FDGGCYEQLFV [MC4R_Y41_S36Y_YF], the SH2 binding enrichment falls from 1.06 to 0.709.

First: QFQEKYKQVEQ [HCN4_Y531_YF]
Second: APAHKYHGGGG [HBD_Y146_L142P]
The SH2 binding enrichment of the first is lower: 0.624 for the first, 0.709 for the second.

Compared with GRRNTYFASIA [ACADM_Y352_YF], TVFSDYLHPQY [CCPG1_Y569] is higher in SH2 binding enrichment: 0.696 for the first, 0.88 for the second.

Compared with KKCTRYIDCDR [ASPA_Y64_L69R], TILEHYRRTHC [MYBPC3_Y1119_V1115I] is lower in SH2 binding enrichment: 0.974 for the first, 0.874 for the second.

First: LSVEIYDRREF [ITGB7_Y753_YF]
Second: DEGVNYFMSKG [FBXO8_Y156]
The SH2 binding enrichment of the first is higher: 0.985 for the first, 0.674 for the second.

For LLSISYVGCSL [ADGRD1_Y571_S567L], the SH2 binding enrichment was 0.96.

target: Hck (UniProt P08631); test: phosphorylation enrichment, bacterial display (enrichment ratio); higher = better substrate or ligand; peptides without Tyr show the background
Sequence (P08631 whole entry, looked up): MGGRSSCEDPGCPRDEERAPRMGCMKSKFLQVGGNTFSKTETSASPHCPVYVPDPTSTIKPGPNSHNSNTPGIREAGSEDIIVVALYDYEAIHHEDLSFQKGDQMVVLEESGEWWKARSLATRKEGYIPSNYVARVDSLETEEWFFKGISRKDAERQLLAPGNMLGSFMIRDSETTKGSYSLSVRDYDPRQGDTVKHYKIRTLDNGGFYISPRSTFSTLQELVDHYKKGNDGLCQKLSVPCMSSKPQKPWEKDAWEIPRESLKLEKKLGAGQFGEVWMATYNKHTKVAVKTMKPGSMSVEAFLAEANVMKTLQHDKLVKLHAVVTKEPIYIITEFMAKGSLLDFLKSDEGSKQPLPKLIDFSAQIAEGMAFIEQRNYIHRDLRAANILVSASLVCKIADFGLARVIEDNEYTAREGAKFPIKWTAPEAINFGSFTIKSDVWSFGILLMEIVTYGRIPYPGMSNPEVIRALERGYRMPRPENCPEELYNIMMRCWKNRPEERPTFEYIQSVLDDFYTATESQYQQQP

First: VEDHDYEGGIG [TKT_Y564_Y563D]
Second: RGKDSYETSKL [SPP1_Y225_Q229K]
The phosphorylation enrichment of the first is lower: 0.609 for the first, 0.669 for the second.

Going from ARSHIYTFSSC [MEFV_Y741_A744S] to QLPRGYISIPV [BAG3_Y205], the phosphorylation enrichment rises from 0.61 to 0.718.

First: NKVFTYIFIME [SCN4A_Y1074_D1069N]
Second: YMKEPYIQSRF [HIPK4_Y175_V171M]
The phosphorylation enrichment of the first is higher: 0.509 for the first, 0.36 for the second.

Compared with KDHPDYKFQAR [SOX10_Y171_P175A_YF], CEHRGSLFLAI [TEK_Y897_Y897S_YF] is lower in phosphorylation enrichment: 0.482 for the first, 0.457 for the second.

Going from GRPLFYWLTGC [LYZL6_Y140] to MSRNLYSGDCF [DDR2_Y736_Y740C_YF], the phosphorylation enrichment rises from 0.42 to 2.12.

First: RGLQVYHRRNA [LRP2_Y2010]
Second: EEVPLYESATT [DCC_Y809_G805E]
The phosphorylation enrichment of the first is lower: 0.783 for the first, 1.49 for the second.

Compared with ACCLLYCGDVV [TUBA4A_Y319_R320C], KVMANYVYKAG [MAML2_Y513_M514V] is lower in phosphorylation enrichment: 1.71 for the first, 0.386 for the second.

First: VLTSKYRGGGG [HBA1_Y141]
Second: TVHCDYLNIPH [TAF1L_Y1385]
The phosphorylation enrichment of the first is higher: 0.563 for the first, 0.55 for the second.

First: CSEEMYRLMLQ [RET_Y981]
Second: PSQRRNVYYYS [PTEN_Y174_Y174N]
The phosphorylation enrichment of the first is lower: 0.666 for the first, 0.74 for the second.

First: EQKKFYNAMKK [SCN5A_Y1495_YF]
Second: FDGGCYEQLFV [MC4R_Y41_S36Y_YF]
The phosphorylation enrichment of the first is lower: 0.367 for the first, 2.67 for the second.

Compared with QFQEKYKQVEQ [HCN4_Y531_YF], APAHKYHGGGG [HBD_Y146_L142P] is lower in phosphorylation enrichment: 0.882 for the first, 0.294 for the second.

Going from GRRNTYFASIA [ACADM_Y352_YF] to TVFSDYLHPQY [CCPG1_Y569], the phosphorylation enrichment rises from 0.423 to 0.457.

First: KKCTRYIDCDR [ASPA_Y64_L69R]
Second: TILEHYRRTHC [MYBPC3_Y1119_V1115I]
The phosphorylation enrichment of the first is lower: 0.37 for the first, 0.524 for the second.

Compared with LSVEIYDRREF [ITGB7_Y753_YF], DEGVNYFMSKG [FBXO8_Y156] is lower in phosphorylation enrichment: 2.83 for the first, 0.456 for the second.

LLSISYVGCSL [ADGRD1_Y571_S567L] showed a phosphorylation enrichment of 0.824.

Reference: the supplement of paper PMC10065799, “High-throughput profiling of sequence recognition by tyrosine kinases and SH2 domains using bacterial peptide display” (eLife, 2023)
